Source: article PMC9729196, “An in silico method to assess antibody fragment polyreactivity” (Nature Communications, 2022)

B1: AT118i4h32 / wild-type human FLAG-AT1R (angiotensin II type 1 receptor) [human] (parent complex)
chain 1: MAEVQLVESGGGLVQPGGSLRLSCAASGYIYRRYRMGWYRQAPGKGREFVAAISGGSSTNYADSVKGRFTISRDNSKNTVYLQMNSLRAEDTAVYYCAAYRIVSDPRVYWGQGTQVTVSSLE
chain 2: MILNSSTEDGIKRIQDDCPKAGRHNYIFVMIPTLYSIIFVVGIFGNSLVVIVIYFYMKLKTVASVFLLNLALADLCFLLTLPLWAVYTAMEYRWPFGNYLCKIASASVSFNLYASVFLLTCLSIDRYLAIVHPMKSRLRRTMLVAKVTCIIIWLLAGLASLPAIIHRNVFFIENTNITVCAFHYESQNSTLPIGLGLTKNILGFLFPFLIILTSYTLIWKALKKAYEIQKNKPRNDDIFKIIMAIVLFFFFSWIPHQIFTFLDVLIQLGIIRDCRIADIVDTAMPITICIAYFNNCLNPLFYGFLGKKFKRYFLQLLKYIPPKAKSHSNLSTKMSTLSYRPSDNVSSSTKKPAPCFEVE

Variants of: B1
Assay: flow cytometry on cells; parent: 100; read off a plot

Q: Which percent of parent does the source give for chain 1 MAEVQLVESGGGLVQPGGSLRLSCAASGYIYRRYRMGWYRQAPGKGREFVAAISGFSSTNYADSVKGRFTISRDNSKNTVYLQMNSLRAEDTAVYYCAAYRIVSDPRVYWGQGTQVTVSSLE [chain 1 G56F] here?
A: The percent of parent was ~54 % of WT.

Q: How did the percent of parent turn out when chain 1 MAEVQLVESGGGLVQPGGSLRLSCAASGYIYRRYRMGWYRQAPGKGREFVAAISGGSSTNYADSVKGRFTISRDNSKNTVYLQMNSLRAEDTAVYYCAADRIVSDPRVYWGQGTQVTVSSLE [chain 1 Y100D] was run?
A: Its percent of parent is ~12 % of WT.

Q: For chain 1 MAEVQLVESGGGLVQPGGSLRLSCAASDYIYRRYRMGWYRQAPGKGREFVAAISGGSSINYADSVKGRFTISRDNSKNTVYLQMNSLRAEDTAVYYCAAYRIVSDPRVYWGQGTQVTVSSLE [chain 1 G28D, chain 1 T59I], which percent of parent is on record?
A: Its percent of parent is ~99 % of WT.

Q: For chain 1 MAEVQLVESGGGLVQPGGSLRLSCAASGYIYRRYRMGWYRQAPGKGREFVAAISGGSSTNYADSVKGRFTISRDNSKNTVYLQMNSLRAEDTAVYYCWAYRIVSDPRVYWGQGTQVTVSSLE [chain 1 A98W], which percent of parent is on record?
A: The percent of parent was ~22 % of WT.

Q: With chain 1 MAEVQLVESGGGLVQPGGSLRLSCAASGYIYRDYRMGWYRQAPGKGREFVAAISGGSSTNYADSVKGRFTISRDNSKNTVYLQMNSLRAEDTAVYYCAAYRIVSDPRVYWGQGTQVTVSSLE [chain 1 R33D] as the variant, how does the percent of parent read?
A: The percent of parent was ~8 % of WT.

Q: With chain 1 MAEVQLVESGGGLVQPGGSLRLSCAASGYIYRRYRMGWYRQAPGKGREFVAAIVGGSSTNYADSVKGRFTISRDNSKNTVYLQMNSLRAEDTAVYYCAAYRIVSDPRVYWGQGTQVTVSSLE [chain 1 S54V] as the variant, how does the percent of parent read?
A: Its percent of parent is ~41 % of WT.

Q: Which percent of parent does the source give for chain 1 MAEVQLVESGGGLVQPGGSLRLSCAASGYIRRRYRMGWYRQAPGKGREFVAAISGGSSTNYADSVKGRFTISRDNSKNTVYLQMNSLRAEDTAVYYCAAYRIVSDPRVYWGQGTQVTVSSLE [chain 1 Y31R] here?
A: The percent of parent was ~48 % of WT.

Q: Which percent of parent does the source give for chain 1 MAEVQLVESGGGLVQPGGSLRLSCAASGYIYRRYRMGWYRQAPGKGREFVAAISGGSSTNYADSVKGRFTISRDNSKNTVYLQMNSLRAEDTAVYYCAAYDIVSDPRVYWGQGTQVTVSSLE [chain 1 R101D] here?
A: Its percent of parent is ~17 % of WT.

Q: For chain 1 MAEVQLVESGGGLVQPGGSLRLSCAASGYIYRRYRMGWYRQAPGKGREFVAAISGGSSTNYADSVKGRFTISRDNSKNTVYLQMNSLRAEDTAVYYCAHYRIVSDPRVYWGQGTQVTVSSLE [chain 1 A99H], which percent of parent is on record?
A: Its percent of parent is ~3 % of WT.

Q: How did the percent of parent turn out when chain 1 MAEVQLVESGGGLVQPGGSLRLSCAASGYIYRRGRMGWYRQAPGKGREFVAAISGGSSTNYADSVKGRFTISRDNSKNTVYLQMNSLRAEDTAVYYCAAYRIVSDPRVYWGQGTQVTVSSLE [chain 1 Y34G] was run?
A: The percent of parent was ~3 % of WT.
